Blank lines part the entries; values can stand above or below the molecule they belong to.
Columns and labels:
[1] = test system: GFP-14-3-3β and its binding proteins; experiment: GFP-14-3-3β co-IP with LC-MS/MS label-free quantification, untreated versus PP1c-treated; parameters: species or system human; conditions: pairwise comparison PP1 vs untreated, 3 replicates each
GFP-14-3-3β = GFP-14-3-3β co-IP with LC-MS/MS, untreated GFP-14-3-3β versus GFP control (14-3-3 interactome); format: binding, human; conditions: 3 replicates each
[2] = student's t-test, LC-MS/MS label-free quantification
[3] = pairwise comparison untreated GFP-14-3-3β vs GFP, student's t-test, LC-MS/MS label-free quantification

- Difference (log2), PP1 vs untreated ([1]; log2 difference, label-free quantification): 1.555
B1: NXF1 (protein, UniProt Q9UBU9 2-619, looked up)
Nuclear RNA export factor 1: ADEGKSYSEHDDERVNFPQRKKKGRGPFRWKYGEGNRRSGRGGSGIRSSRLEEDDGDVAMSDAQDGPRVRYNPYTTRPNRRGDTWHDRDRIHVTVRRDRAPPERGGAGTSQDGTSKNWFKITIPYGRKYDKAWLLSMIQSKCSVPFTPIEFHYENTRAQFFVEDASTASALKAVNYKILDRENRRISIIINSSAPPHTILNELKPEQVEQLKLIMSKRYDGSQQALDLKGLRSDPDLVAQNIDVVLNRRSCMAATLRIIEENIPELLSLNLSNNRLYRLDDMSSIVQKAPNLKILNLSGNELKSERELDKIKGLKLEELWLDGNSLCDTFRDQSTYISAIRERFPKLLRLDGHELPPPIAFDVEAPTTLPPCKGSYFGTENLKSLVLHFLQQYYAIYDSGDRQGLLDAYHDGACCSLSIPFIPQNPARSSLAEYFKDSRNVKKLKDPTLRFRLLKHTRLNVVAFLNELPKTQHDVNSFVVDISAQTSTLLCFSVNGVFKEVDGKSRDSLRAFTRTFIAVPASNSGLCIVNDELFVRNASSEEIQRAFAMPAPTPSSSPVPTLSPEQQEMLQAFSTQSGMNLEWSQKCLQDNNWDYTRSAQAFTHLKAKGEIPEVAFMK
- Difference (log2), untreated vs GFP (GFP-14-3-3β; log2 difference, pairwise comparison untreated vs GFP, label-free quantification): 3.395

- Difference (log2), PP1 vs untreated [1, 2]: -2.76 log2
B2: TFEB (protein, UniProt P19484 1-476, looked up)
Transcription factor EB: MASRIGLRMQLMREQAQQEEQRERMQQQAVMHYMQQQQQQQQQQLGGPPTPAINTPVHFQSPPPVPGEVLKVQSYLENPTSYHLQQSQHQKVREYLSETYGNKFAAHISPAQGSPKPPPAASPGVRAGHVLSSSAGNSAPNSPMAMLHIGSNPERELDDVIDNIMRLDDVLGYINPEMQMPNTLPLSSSHLNVYSSDPQVTASLVGVTSSSCPADLTQKRELTDAESRALAKERQKKDNHNLIERRRRFNINDRIKELGMLIPKANDLDVRWNKGTILKASVDYIRRMQKDLQKSRELENHSRRLEMTNKQLWLRIQELEMQARVHGLPTTSPSGMNMAELAQQVVKQELPSEEGPGEALMLGAEVPDPEPLPALPPQAPLPLPTQPPSPFHHLDFSHSLSFGGREDEGPPGYPEPLAPGHGSPFPSLSKKDLDLMLLDDSLLPLASDPLLSTMSPEASKASSRRSSFSMEEGDVL
- Difference (log2), untreated vs GFP (GFP-14-3-3β; [3]): 5.784 log2

- Difference (log2), PP1 vs untreated [1, 2]: -2.776 log2
B3: THRAP3 (protein, UniProt Q9Y2W1 2-955, looked up)
Thyroid hormone …: SKTNKSKSGSRSSRSRSASRSRSRSFSKSRSRSRSLSRSRKRRLSSRSRSRSYSPAHNRERNHPRVYQNRDFRGHNRGYRRPYYFRGRNRGFYPWGQYNRGGYGNYRSNWQNYRQAYSPRRGRSRSRSPKRRSPSPRSRSHSRNSDKSSSDRSRRSSSSRSSSNHSRVESSKRKSAKEKKSSSKDSRPSQAAGDNQGDEAKEQTFSGGTSQDTKASESSKPWPDATYGTGSASRASAVSELSPRERSPALKSPLQSVVVRRRSPRPSPVPKPSPPLSSTSQMGSTLPSGAGYQSGTHQGQFDHGSGSLSPSKKSPVGKSPPSTGSTYGSSQKEESAASGGAAYTKRYLEEQKTENGKDKEQKQTNTDKEKIKEKGSFSDTGLGDGKMKSDSFAPKTDSEKPFRGSQSPKRYKLRDDFEKKMADFHKEEMDDQDKDKAKGRKESEFDDEPKFMSKVIGANKNQEEEKSGKWEGLVYAPPGKEKQRKTEELEEESFPERSKKEDRGKRSEGGHRGFVPEKNFRVTAYKAVQEKSSSPPPRKTSESRDKLGAKGDFPTGKSSFSITREAQVNVRMDSFDEDLARPSGLLAQERKLCRDLVHSNKKEQEFRSIFQHIQSAQSQRSPSELFAQHIVTIVHHVKEHHFGSSGMTLHERFTKYLKRGTEQEAAKNKKSPEIHRRIDISPSTFRKHGLAHDEMKSPREPGYKAEGKYKDDPVDLRLDIERRKKHKERDLKRGKSRESVDSRDSSHSRERSAEKTEKTHKGSKKQKKHRRARDRSRSSSSSSQSSHSYKAEEYTEETEEREESTTGFDKSRLGTKDFVGPSERGGGRARGTFQFRARGRGWGRGNYSGNNNNNSNNDFQKRNREEEWDPEYTPKSKKYYLHDDREGEGSDKWVSRGRGRGAFPRGRGRFMFRKSSTSPKWAHDKFSGEEGEIEDDESGTENREEKDNIQPTTE
- Difference (log2), untreated vs GFP (GFP-14-3-3β; [3]): 4.049 log2

- Difference (log2), PP1 vs untreated [1, 2]: -2.973 log2
B4: SRSF10 (protein, UniProt O75494 1-262, looked up)
Serine/arginine-rich splicing …: MSRYLRPPNTSLFVRNVADDTRSEDLRREFGRYGPIVDVYVPLDFYTRRPRGFAYVQFEDVRDAEDALHNLDRKWICGRQIEIQFAQGDRKTPNQMKAKEGRNVYSSSRYDDYDRYRRSRSRSYERRRSRSRSFDYNYRRSYSPRNSRPTGRPRRSRSHSDNDRFKHRNRSFSRSKSNSRSRSKSQPKKEMKAKSRSRSASHTKTRGTSKTDSKTHYKSGSRYEKESRKKEPPRSKSQSRSQSRSRSKSRSRSWTSPKSSGH
- Difference (log2), untreated vs GFP (GFP-14-3-3β; [3]): 3.797 log2

- Difference (log2), PP1 vs untreated [1, 2]: -2.551 log2
B5: HDAC7 (protein, UniProt Q8WUI4 1-952, looked up)
Histone deacetylase 7: MDLRVGQRPPVEPPPEPTLLALQRPQRLHHHLFLAGLQQQRSVEPMRLSMDTPMPELQVGPQEQELRQLLHKDKSKRSAVASSVVKQKLAEVILKKQQAALERTVHPNSPGIPYRTLEPLETEGATRSMLSSFLPPVPSLPSDPPEHFPLRKTVSEPNLKLRYKPKKSLERRKNPLLRKESAPPSLRRRPAETLGDSSPSSSSTPASGCSSPNDSEHGPNPILGSEALLGQRLRLQETSVAPFALPTVSLLPAITLGLPAPARADSDRRTHPTLGPRGPILGSPHTPLFLPHGLEPEAGGTLPSRLQPILLLDPSGSHAPLLTVPGLGPLPFHFAQSLMTTERLSGSGLHWPLSRTRSEPLPPSATAPPPPGPMQPRLEQLKTHVQVIKRSAKPSEKPRLRQIPSAEDLETDGGGPGQVVDDGLEHRELGHGQPEARGPAPLQQHPQVLLWEQQRLAGRLPRGSTGDTVLLPLAQGGHRPLSRAQSSPAAPASLSAPEPASQARVLSSSETPARTLPFTTGLIYDSVMLKHQCSCGDNSRHPEHAGRIQSIWSRLQERGLRSQCECLRGRKASLEELQSVHSERHVLLYGTNPLSRLKLDNGKLAGLLAQRMFVMLPCGGVGVDTDTIWNELHSSNAARWAAGSVTDLAFKVASRELKNGFAVVRPPGHHADHSTAMGFCFFNSVAIACRQLQQQSKASKILIVDWDVHHGNGTQQTFYQDPSVLYISLHRHDDGNFFPGSGAVDEVGAGSGEGFNVNVAWAGGLDPPMGDPEYLAAFRIVVMPIAREFSPDLVLVSAGFDAAEGHPAPLGGYHVSAKCFGYMTQQLMNLAGGAVVLALEGGHDLTAICDASEACVAALLGNRVDPLSEEGWKQKPNLNAIRSLEAVIRVHSKYWGCMQRLASCPDSWVPRVPGADKEEVEAVTALASLSVGILAEDRPSEQLVEEEEPMNL
- Difference (log2), untreated vs GFP (GFP-14-3-3β; [3]): 7.896 log2

- Difference (log2), PP1 vs untreated [1, 2]: -2.506 log2
B6: SIPA1 (protein, UniProt Q96FS4 1-1042, looked up)
Signal-induced …: MPMWAGGVGSPRRGMAPASTDDLFARKLRQPARPPLTPHTFEPRPVRGPLLRSGSDAGEARPPTPASPRARAHSHEEASRPAATSTRLFTDPLALLGLPAEEPEPAFPPVLEPRWFAHYDVQSLLFDWAPRSQGMGSHSEASSGTLASAEDQAASSDLLHGAPGFVCELGGEGELGLGGPASPPVPPALPNAAVSILEEPQNRTSAYSLEHADLGAGYYRKYFYGKEHQNFFGMDESLGPVAVSLRREEKEGSGGGTLHSYRVIVRTTQLRTLRGTISEDALPPGPPRGLSPRKLLEHVAPQLSPSCLRLGSASPKVPRTLLTLDEQVLSFQRKVGILYCRAGQGSEEEMYNNQEAGPAFMQFLTLLGDVVRLKGFESYRAQLDTKTDSTGTHSLYTTYQDHEIMFHVSTMLPYTPNNQQQLLRKRHIGNDIVTIVFQEPGSKPFCPTTIRSHFQHVFLVVRAHTPCTPHTTYRVAVSRTQDTPAFGPALPAGGGPFAANADFRAFLLAKALNGEQAAGHARQFHAMATRTRQQYLQDLATNEVTTTSLDSASRFGLPSLGGRRRAAPRGPGAELQAAGSLVWGVRAAPGARVAAGAQASGPEGIEVPCLLGISAEALVLVAPRDGRVVFNCACRDVLAWTFSEQQLDLYHGRGEAITLRFDGSPGQAVGEVVARLQLVSRGCETRELALPRDGQGRLGFEVDAEGFVTHVERFTFAETAGLRPGARLLRVCGQTLPSLRPEAAAQLLRSAPKVCVTVLPPDESGRPRRSFSELYTLSLQEPSRRGAPDPVQDEVQGVTLLPTTKQLLHLCLQDGGSPPGPGDLAEERTEFLHSQNSLSPRSSLSDEAPVLPNTTPDLLLATTAKPSVPSADSETPLTQDRPGSPSGSEDKGNPAPELRASFLPRTLSLRNSISRIMSEAGSGTLEDEWQAISEIASTCNTILESLSREGQPIPESGDPKGTPKSDAEPEPGNLSEKVSHLESMLRKLQEDLQKEKADRAALEEEVRSLRHNNRRLQAESESAATRLLLASKQLGSPTADLA
- Difference (log2), untreated vs GFP (GFP-14-3-3β; [3]): 4.698 log2

- Difference (log2), PP1 vs untreated [1, 2]: -2.839 log2
B7: TFE3 (protein, UniProt P19532 1-575, looked up)
Transcription factor E3: MSHAAEPARDGVEASAEGPRAVFVLLEERRPADSAQLLSLNSLLPESGIVADIELENVLDPDSFYELKSQPLPLRSSLPISLQATPATPATLSASSSAGGSRTPAMSSSSSSRVLLRQQLMRAQAQEQERRERREQAAAAPFPSPAPASPAISVVGVSAGGHTLSRPPPAQVPREVLKVQTHLENPTRYHLQQARRQQVKQYLSTTLGPKLASQALTPPPGPASAQPLPAPEAAHTTGPTGSAPNSPMALLTIGSSSEKEIDDVIDEIISLESSYNDEMLSYLPGGTTGLQLPSTLPVSGNLLDVYSSQGVATPAITVSNSCPAELPNIKREISETEAKALLKERQKKDNHNLIERRRRFNINDRIKELGTLIPKSSDPEMRWNKGTILKASVDYIRKLQKEQQRSKDLESRQRSLEQANRSLQLRIQELELQAQIHGLPVPPTPGLLSLATTSASDSLKPEQLDIEEEGRPGAATFHVGGGPAQNAPHQQPPAPPSDALLDLHFPSDHLGDLGDPFHLGLEDILMEEEEGVVGGLSGGALSPLRAASDPLLSSVSPAVSKASSRRSSFSMEEES
- Difference (log2), untreated vs GFP (GFP-14-3-3β; [3]): 3.895 log2

Source: publication PMC7367873, “Dissecting the sequence determinants for dephosphorylation by the catalytic subunits of phosphatases PP1 and PP2A” (Nature Communications, 2020)
